# Measurements from patent US20230366033A1, “METHODS FOR TREATING CANCERS WITH INHIBITORS TARGETING THE ROLE OF GRB2 IN DNA REPAIR” (Board of Regents, The University of Texas System, priority 2020, published 2023).
# pKd: −log10 of the molar value.
# How the values were obtained:
# [1] = target: GRB2-SH2 domain, purified, Atto488-labelled (UniProt P62993); experiment: MST; 100 nM Atto488-labelled GRB2-SH2 domain, peptide titrated; pEGFR phosphopeptide, comparator; cited to a figure and Ahmed et al., 2015
# [2] = target: GRB2 K109R mutant, bacterially expressed and purified (UniProt P62993); experiment: MST, 100 nM Atto488-labelled K109R GRB2, peptide titrated
# [3] = target: Histone H2AX, endogenous, in HEK293T cell extracts (UniProt P16104); experiment: Strep-Tactin purification of Strep-GRB2 from HEK293T nuclear extracts, mass spectrometry (mean of three data sets) [panel A]
# HERC1 (human) = HERC1 (human) (UniProt Q15751); experiment: GRB2 immunoprecipitation-mass spectrometry in HEK293T cells (mean of three data sets) [panel G]
# [4] = target: CBLL1 E3 ubiquitin ligase, endogenous, in HEK293T cells (UniProt Q75N03); experiment: as above
# [5] = target: RING2 E3 ubiquitin ligase, endogenous, in HEK293T cells (UniProt Q99496); experiment: as above
# Chain of RING2 E3 ubiquitin ligase, endogenous, in HEK293T cells (Q99496 2-336 limits assumed): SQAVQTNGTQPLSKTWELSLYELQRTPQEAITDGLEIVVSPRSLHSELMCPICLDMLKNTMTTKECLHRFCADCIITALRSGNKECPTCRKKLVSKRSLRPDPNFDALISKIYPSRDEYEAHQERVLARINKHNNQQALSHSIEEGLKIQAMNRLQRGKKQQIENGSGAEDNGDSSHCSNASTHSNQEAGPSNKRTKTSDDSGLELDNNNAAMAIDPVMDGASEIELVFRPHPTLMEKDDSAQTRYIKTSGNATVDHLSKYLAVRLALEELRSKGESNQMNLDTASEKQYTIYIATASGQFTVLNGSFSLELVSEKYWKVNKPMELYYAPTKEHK
# Chain of HERC1 (human) (Q15751 whole entry): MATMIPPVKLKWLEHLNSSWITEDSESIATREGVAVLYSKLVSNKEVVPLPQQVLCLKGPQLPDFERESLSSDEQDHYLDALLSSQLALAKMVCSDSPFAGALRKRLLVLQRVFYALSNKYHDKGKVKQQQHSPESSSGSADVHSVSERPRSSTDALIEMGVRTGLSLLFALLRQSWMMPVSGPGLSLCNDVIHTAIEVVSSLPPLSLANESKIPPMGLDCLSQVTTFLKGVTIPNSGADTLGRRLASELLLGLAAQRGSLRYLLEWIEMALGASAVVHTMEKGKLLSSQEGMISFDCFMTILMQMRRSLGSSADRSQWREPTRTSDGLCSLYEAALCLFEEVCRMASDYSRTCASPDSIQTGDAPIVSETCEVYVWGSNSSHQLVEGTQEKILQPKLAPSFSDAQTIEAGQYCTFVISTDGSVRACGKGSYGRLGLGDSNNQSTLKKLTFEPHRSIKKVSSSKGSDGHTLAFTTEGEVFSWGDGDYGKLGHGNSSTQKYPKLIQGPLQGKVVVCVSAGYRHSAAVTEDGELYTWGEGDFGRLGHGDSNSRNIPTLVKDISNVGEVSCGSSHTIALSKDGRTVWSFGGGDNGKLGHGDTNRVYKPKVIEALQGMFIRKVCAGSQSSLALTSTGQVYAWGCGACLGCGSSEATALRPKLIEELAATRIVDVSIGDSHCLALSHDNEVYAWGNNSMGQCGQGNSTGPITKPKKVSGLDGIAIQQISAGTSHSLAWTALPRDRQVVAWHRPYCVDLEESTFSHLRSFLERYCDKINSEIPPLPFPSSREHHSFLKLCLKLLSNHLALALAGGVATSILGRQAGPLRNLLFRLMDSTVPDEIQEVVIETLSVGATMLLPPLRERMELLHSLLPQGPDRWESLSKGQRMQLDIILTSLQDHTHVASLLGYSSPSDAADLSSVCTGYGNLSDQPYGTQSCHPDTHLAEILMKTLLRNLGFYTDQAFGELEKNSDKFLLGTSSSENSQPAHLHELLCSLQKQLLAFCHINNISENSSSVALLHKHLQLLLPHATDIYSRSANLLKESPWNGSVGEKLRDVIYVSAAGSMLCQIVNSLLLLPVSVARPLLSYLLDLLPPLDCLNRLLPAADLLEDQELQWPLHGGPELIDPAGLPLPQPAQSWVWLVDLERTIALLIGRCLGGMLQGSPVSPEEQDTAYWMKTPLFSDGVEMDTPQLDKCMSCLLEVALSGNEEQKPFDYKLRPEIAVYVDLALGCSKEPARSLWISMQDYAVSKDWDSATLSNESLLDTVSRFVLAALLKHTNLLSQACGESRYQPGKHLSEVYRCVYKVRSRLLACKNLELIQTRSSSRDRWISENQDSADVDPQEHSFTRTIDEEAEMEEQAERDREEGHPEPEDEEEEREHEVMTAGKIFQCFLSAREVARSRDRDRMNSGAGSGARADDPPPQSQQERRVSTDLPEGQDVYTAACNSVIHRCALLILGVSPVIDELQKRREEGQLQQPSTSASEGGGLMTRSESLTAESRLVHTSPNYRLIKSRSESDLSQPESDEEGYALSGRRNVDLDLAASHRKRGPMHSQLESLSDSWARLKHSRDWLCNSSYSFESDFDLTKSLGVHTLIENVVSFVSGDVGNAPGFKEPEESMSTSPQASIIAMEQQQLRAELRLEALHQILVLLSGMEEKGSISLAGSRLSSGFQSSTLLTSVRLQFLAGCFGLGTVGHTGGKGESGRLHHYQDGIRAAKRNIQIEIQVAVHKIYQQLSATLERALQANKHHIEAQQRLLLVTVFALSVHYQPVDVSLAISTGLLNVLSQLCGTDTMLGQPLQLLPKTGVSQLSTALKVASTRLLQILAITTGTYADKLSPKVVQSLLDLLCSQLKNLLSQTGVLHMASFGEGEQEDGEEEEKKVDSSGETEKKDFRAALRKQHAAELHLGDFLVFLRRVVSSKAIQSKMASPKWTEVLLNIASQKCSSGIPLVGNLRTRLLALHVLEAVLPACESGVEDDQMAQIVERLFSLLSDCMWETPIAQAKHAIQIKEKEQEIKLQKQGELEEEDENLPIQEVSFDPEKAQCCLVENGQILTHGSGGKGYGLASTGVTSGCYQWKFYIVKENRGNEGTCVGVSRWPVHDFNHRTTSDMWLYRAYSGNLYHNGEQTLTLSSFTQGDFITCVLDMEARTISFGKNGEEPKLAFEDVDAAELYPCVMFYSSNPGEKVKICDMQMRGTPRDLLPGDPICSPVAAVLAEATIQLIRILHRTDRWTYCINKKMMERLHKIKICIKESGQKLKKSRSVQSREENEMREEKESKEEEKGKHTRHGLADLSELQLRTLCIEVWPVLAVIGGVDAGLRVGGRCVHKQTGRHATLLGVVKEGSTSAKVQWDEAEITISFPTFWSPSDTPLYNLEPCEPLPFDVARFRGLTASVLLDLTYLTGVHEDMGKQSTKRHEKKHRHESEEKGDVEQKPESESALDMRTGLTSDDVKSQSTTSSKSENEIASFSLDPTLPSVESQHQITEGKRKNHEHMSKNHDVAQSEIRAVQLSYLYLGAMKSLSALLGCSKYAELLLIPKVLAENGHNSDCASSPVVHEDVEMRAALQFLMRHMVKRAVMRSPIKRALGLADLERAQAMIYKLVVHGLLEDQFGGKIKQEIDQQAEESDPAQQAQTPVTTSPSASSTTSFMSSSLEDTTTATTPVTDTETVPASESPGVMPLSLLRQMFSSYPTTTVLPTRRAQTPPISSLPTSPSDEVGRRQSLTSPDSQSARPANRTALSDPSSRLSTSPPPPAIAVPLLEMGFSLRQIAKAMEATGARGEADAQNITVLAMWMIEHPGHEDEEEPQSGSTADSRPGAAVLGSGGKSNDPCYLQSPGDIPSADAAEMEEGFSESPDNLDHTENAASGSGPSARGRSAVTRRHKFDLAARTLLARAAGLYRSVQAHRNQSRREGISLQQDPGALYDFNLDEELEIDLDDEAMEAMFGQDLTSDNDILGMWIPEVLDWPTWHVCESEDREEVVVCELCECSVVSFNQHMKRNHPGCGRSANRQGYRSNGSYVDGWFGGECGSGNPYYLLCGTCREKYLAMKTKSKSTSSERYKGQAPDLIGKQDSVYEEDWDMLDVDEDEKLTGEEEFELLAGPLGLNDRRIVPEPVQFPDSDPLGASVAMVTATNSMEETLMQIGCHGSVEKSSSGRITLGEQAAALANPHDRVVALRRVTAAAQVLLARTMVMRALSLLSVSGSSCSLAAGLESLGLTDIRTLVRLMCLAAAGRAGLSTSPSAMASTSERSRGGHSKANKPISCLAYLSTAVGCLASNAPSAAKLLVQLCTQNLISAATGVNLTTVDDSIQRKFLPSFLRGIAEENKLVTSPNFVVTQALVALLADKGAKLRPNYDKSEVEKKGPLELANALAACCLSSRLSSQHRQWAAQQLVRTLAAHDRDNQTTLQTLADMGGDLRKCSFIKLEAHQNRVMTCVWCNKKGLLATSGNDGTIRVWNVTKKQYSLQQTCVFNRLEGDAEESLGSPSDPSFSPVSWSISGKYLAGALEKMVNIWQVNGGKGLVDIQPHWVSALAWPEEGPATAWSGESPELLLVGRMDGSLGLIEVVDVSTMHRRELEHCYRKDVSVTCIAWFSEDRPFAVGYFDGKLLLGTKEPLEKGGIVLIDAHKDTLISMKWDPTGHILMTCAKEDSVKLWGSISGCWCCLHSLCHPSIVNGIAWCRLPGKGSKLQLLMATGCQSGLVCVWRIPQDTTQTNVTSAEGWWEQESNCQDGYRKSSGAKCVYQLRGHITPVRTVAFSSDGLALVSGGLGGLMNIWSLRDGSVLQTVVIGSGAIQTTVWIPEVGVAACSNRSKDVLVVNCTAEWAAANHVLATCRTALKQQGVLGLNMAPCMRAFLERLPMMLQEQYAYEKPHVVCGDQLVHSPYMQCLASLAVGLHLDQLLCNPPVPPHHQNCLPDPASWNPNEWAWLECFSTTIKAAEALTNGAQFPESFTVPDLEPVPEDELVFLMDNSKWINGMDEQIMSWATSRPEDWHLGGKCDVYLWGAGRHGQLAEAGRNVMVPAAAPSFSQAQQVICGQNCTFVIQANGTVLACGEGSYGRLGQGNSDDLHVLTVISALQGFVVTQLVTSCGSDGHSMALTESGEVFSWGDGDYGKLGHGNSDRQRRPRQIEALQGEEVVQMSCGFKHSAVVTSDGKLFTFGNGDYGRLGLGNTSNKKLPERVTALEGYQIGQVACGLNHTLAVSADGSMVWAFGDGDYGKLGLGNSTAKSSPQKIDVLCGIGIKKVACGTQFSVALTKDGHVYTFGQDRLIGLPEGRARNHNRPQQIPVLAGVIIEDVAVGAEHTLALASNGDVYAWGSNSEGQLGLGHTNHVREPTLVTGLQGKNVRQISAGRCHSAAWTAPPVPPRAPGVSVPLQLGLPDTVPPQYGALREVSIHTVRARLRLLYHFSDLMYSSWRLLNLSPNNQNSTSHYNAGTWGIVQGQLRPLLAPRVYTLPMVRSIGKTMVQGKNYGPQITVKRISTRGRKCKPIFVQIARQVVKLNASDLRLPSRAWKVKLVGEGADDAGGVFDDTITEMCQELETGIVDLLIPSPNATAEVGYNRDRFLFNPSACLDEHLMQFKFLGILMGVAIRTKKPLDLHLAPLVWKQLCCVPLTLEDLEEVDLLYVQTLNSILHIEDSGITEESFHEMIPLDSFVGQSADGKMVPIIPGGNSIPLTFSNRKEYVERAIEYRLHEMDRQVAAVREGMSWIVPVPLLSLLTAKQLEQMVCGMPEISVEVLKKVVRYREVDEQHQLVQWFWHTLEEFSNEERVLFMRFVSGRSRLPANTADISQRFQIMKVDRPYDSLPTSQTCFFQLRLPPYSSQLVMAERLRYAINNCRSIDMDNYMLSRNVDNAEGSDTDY
Substance,pKd [1],pKd [2],Coverage(%) [3] [%],Peptides [3] [peptides],Coverage(%) (HERC1 (human)),Peptides (HERC1 (human)) [peptides],Coverage(%) [4] [%],Peptides [4] [peptides],Coverage(%) [5] [%],Peptides [5] [peptides]
Phosphorylated EGFR synthetic peptide FLPVPE(pY)INQSVPKR,5.14,5.59,–,–,–,–,–,–,–,–
Strep-tagged wild-type GRB2 expressed in cells (HEK293T; reconstituted GRB2-KO cells) (from UniProt P62993 1-217),–,–,71,16,0,1,3,1,15,4
